Data published in US20160340704A1, “METHOD OF MAKING A BENZYLISOQUINOLINE ALKALOID (BIA) METABOLITE, ENZYMES THEREFORE” (VALORBEC SOCIÉTÉ EN COMMANDITE, priority 2014, published 2016).

B1: EX56: CYP719 from Chelidonium majus, SEQ ID NO: 335 (protein, listed as Chelidonium majus)
chain: MLLILIMDFRNSRSNLNPAKMEELMSDPWIITATTLAVVILLTTILRRKSSSMKWPKGPKTLPIIGNMHLFGGTDLHVVLYNIAKVYGNVMTIWIGSWRPVIVISDIERAWEVLVNKSSDYSARDMPEITKLISSDWKTISTSDAGAFWTNLRKGLQNVALSPHNLASQFQFQESDIKKLIETIKEEAAVNNGIVKPLDHLKKAMVRLISRLVFGQDFDNDEYVEGMHHAIEELIRVSGYARLAEAFYYAKYLPSHKKAVRDVEEANRRVQKLVRPFLSLNPPTNTYLHFLRSQNYSEEVIIFAIFEAYLLGVDSTSSTTAWALAFLIREPNVQEKLYQELKNFTVKNGRDMLKVEDINKLPYLQATIKETMRMKPIAPLAIPHKACRDTSLKGSKIDKGTRVMVNIYALHHNEKIWKEPFKFMPERFLQTEGENGKAMEQSFLPFSAGMRICAGMELGKLQFNFALANLVNAFKWSCVADGVLPDMSDQLGFVLVMKTPLEARITSRC
B2: EX76: CYP719 from Nandina domestica, SEQ ID NO: 355 (protein, listed as Nandina domestica)
chain: MEESFWIVSATIVVVFVIATMFRKSSSISSKTEWPAGPKKLPVIGNLHQLGGDVLHVVLANLAKVYGTVMTVWVGSWKPMIVISDIDRAWEVLVNKSSDYSGRAMPEITEIISAKGKTISTSDSGPHWSNLRKGLQNVALSPHNIAAQSRFQESDITKMIKTLKQEAASNNGIVQPLDHLKKSTVRLISRLIFGQDFDDDEYVEAMHLAVEELIRVSGYARLAEAFYYAKYLPSHKRAVSEVWEANRRVKRIVKPRLSANPPPNCYLHFLSSQDYSEEMIIFAIFEAYLLGVDSTSSTTAWALGFLIREPKVQERLYQELKNCAGENGLIKVEDINKLPYLQAVLKETMRMKPIAPLAIPHKAVRETSLAGNKVEPGTRVMVNLYAIHHNPKVWIDPHKFKPERFLQGEENGGGNLKLMEQSLLPFSAGMRTCAGMELGKLQFGFSLANLVNAFQWDCAKKGMFPDMSDLLGFVLLMKTPLQAKIVPRGSPSINGY
B3: EX67: CYP719 from Glaucium flavum, SEQ ID NO: 346 (protein, listed as Glaucium flavum)
chain: MEMKSSVVFSYPAMEELFKSNPWVITGTTLAVLILMTTMFRKKSLSMKWPKGPKTLPIIGNMHLLGGTNLQVILHNMSKVYGNVMTIWIGSWRPVIVVSDIERAWEVLVNKSSDYSGRDMPEITKIISADWKTISTSDSGPHWTNLRKGLQNVALSPHNLAAQFQFQERDICKLIETLKEEAKLNNGIVKPLDHLKKATIRLISRLVFGQDFDNSKYVEDMHHAIEELIRVSGYARLADAFYYAKYLPSQKKAVRDVEEAQRRVQRLVRPFLSLNPPTNCYLHFLRSQNYSDEVIIFAIFEAYLLGVDSTSSTTAWALAFLVREPNVQEKLYQELKNFTAKNGREMLKVEDINKLPYLQAVIKETMRMKPIAPLAIPHKACRDTSLKGRKIDKGTQIMVNIYALHHNENVWKEPFKFMPERFLQTDQDVNGKAMDQSLLPFSAGMRICAGMELGKLQFSFSLANLLNTFQWSCVADGVLPDMSDQLGFVLLMKTPLEARITPRC
B4: EX42: CYP719 from Argemone mexicana, B1NF19.1, SEQ ID NO: 321 (protein, listed as Argemone mexicana)
chain: MEEKIMTNNSPWILTSSTTTTTTILLSLLFTIFIILRRNKSSSSKMVWPTGPKTLPIIGNMNILGGTALHVVLHNLAKTYGNVMTIWIGSWRPVIVVSDIDRAWEVLVNKSSDYSARDMPEITKLATADWKTISSSDSGPFWTNLRKGLQNVALSPQNLSSQSKFQERDIIKTIQNLKEEAKMNNGIVKPLDHLKKAMVRLISRLIYGQDFDNDEYVEEMHHTIEELIRVSGYARLAEAFYYAKYLPSHKKAVREVLQANQRVQNLVRPLLSLNSPTNTYLHFLRSQNYEDEVIIFAIFEAYLLGVDSTSSTTAWALAYLIREPNVQEKLYEELKNFTNDNDRKMVKFEDLNKLQYLQAVVKETMRMKPIAPLAIPHKACRETSLMGRKVNQGTRVMVNIYALHHNQNVWKEPYKFNPERFLQKNQDGVDGKAMEQSLLPFSAGMRICAGMELGKLQFSFALANLVNAFKWSCVSDGVFPDMSDQLGFVLLMKTPLEAGIVPRM

Tested on: cheilanthifoline
Assay: CYP719 Ring A closure of cheilanthifoline to stylopine in GC1333
Assay type: cell-based, Saccharomyces cerevisiae
Protocol: FIG. 11A-B: showing conversion of (S)-cheilanthifoline (FIG. 11A) or (S)-nandinine (FIG. 11B) to (S)-stylopine by purchased CYP719s. Plasmids harboring CYP719s were transformed into GC1333 containing an integrated PsCPR. Strains were incubated with the appropriate BIA overnight, and then total BIAs were extracted and total molar ratios were compared. PsSPSΔN was used as a control.
The 10 CYP719s with 95% activity on Ring A of scoulerine and the 10 CYP719s with activity on Ring B of scoulerine were tested for activity on cheilanthifoline and nandinine, respectively, in order to generate a branched stylopine synthesis pathway. […] CYP719s PsCFS and EX101, capable of converting >98% of scoulerine to cheilanthifoline and nandinine, respectively, were incubated with scoulerine. After 16 h, cells were pelleted and the supernatant fraction was collected. The supernatant was then applied to fresh yeast strains in order to supplement them with either TE containing nandinine or cheilanthifoline as necessary.

| Molecule | conversion of cheilanthifoline to stylopine [%] |
| --- | --- |
| B1 | > 98 |
| B2 | > 98 |
| B3 | > 98 |
| B4 | > 98 |
